Results: IntAct's records for PubMed 38123684

B1: cAMP-regulated phosphoprotein 19 (Homo sapiens), P56211 (parent)
chain: MSAEVPEAASAEEQKEMEDKVTSPEKAEEAKLKARYPHLGQKPGGSDFLRKRLQKGQKYFDSGDYNMAKAKMKNKQLPTAAPDKTEVTGDHIPTPQDLPQRKPSLVASKLAG
partner: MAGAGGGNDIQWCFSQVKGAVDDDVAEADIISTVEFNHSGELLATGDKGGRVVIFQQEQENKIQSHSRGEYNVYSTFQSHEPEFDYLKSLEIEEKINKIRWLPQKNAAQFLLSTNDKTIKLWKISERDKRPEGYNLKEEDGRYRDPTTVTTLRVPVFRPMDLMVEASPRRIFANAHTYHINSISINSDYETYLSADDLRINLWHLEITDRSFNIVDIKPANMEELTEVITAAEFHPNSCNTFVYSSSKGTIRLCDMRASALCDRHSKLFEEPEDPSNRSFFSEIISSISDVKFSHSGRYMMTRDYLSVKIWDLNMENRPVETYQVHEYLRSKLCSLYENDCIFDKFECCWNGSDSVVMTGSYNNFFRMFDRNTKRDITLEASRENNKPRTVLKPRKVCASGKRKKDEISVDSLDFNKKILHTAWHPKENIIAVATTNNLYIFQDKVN

Variants of: B1
Conditions: with 2aba_human PPP2R2A

Row | Variant | effect of a mutation on the interaction
1 | MSAEVPEAASAEEQKEMEDKVTSPEKAEEAKLKARYPHLGQKPGGSDFLRKRLQKGQKYFDEGDYNMAKAKMKNKQLPTAAPDKTEVTGDHIPTPQDLPQRKPSLVASKLAG [S62E] | with no effect
